{
  "source": "patent US6897196B1",
  "about": "“pH sensitive lipids based on ortho ester linkers, composition and method” (The Regents of the University of California, priority 2001, dated 2005)",
  "key": {"[1]": {"experiment": "Acid sensitivity of POD as monitored by thin layer chromatography", "assay_type": "physicochemical", "conditions": "for degradation of POD (disappearance of the compound spot at Rf~0.4): within one hour", "description": "Conical polystyrene microcentrifuge tubes (0.5 mL) containing 20 μL 100 mM sodium phosphate buffer of different pH were pre-warmed at 37° C. for 30 min and silica gel TLC plates (WhatmanCE from Whatman Ltd, Maidstoned, Kent, England) were pre-equilibrated with the solvent system (CHCl3/MeOH/NH4OH=100:15:1) by running the plates without samples followed by brief air-drying. Eight milligrams of POD was dissolved into 100 μL water by vortexing and 20 μL of the solution was added into each of the pre-warmed tubes and mixed thoroughly. The tubes were incubated at 37° C. and 10 μL of the solutions were aliquoted at different time points and mixed with 10 μL of 10% concentrated NH4OH (30% w/w) in acetone to stop the hydrolysis. Five microliters of the mixture was spotted onto pre-equilibrated TLC plates. Three microliters of distearoyl glycerol, monomethyl ether of PEG2000 and POD in 10 mg1 mL CHCl3 solution were also spotted as standards. TLC plates were developed, heated at 150° C. for 5 min and stained in I2 chamber for 1 h to observe the locations of POD and its degradation products."}, "[2]": {"experiment": "Critical Micelle Concentration of POD dispersion", "assay_type": "physicochemical", "conditions": "150 mM Tris/CL buffer pH 9.0", "description": "In one example 10 μmoles of methoxypolyethylene glycol 2000-diortho ester-distearoyl glycerol conjugate was dried from a chloroform solution unto the sides of a glass vessel. […] Under these conditions the POD has a Critical Micelle Concentration (CMC) of about 10 μM and micelles will be formed. An aliquot of 0.05 mL of the POD micelles is added to 1 mL of a 10 mM (total lipid) liposome suspension consisting of DSPC:Chol in the mole ratio of 55:40 in a 0.14 M NaCl-10 mM Tris, pH 8.0 buffer. The mixture is incubated at 37° C. for 2 hours. After this time the POD is incorporated into the liposome and the liposome can be injected into an animal."}},
  "data": [
    {"substance": "3,9-Diethyl-3-(2,3-distearoyloxypropyloxy)-9-(methoxypolyethyleneglycol2000-1-yl)-2,4,8,10-tetraoxaspiro[5,5]undecane [POD]", "values": [
      {"measurement": "degradation of POD", "setting": "[1]; buffer of neutral pH 7.4, 37° C., over 3 hours", "result": "most of the conjugate remained intact"},
      {"measurement": "approximate half-life of POD degradation", "setting": "[1]; buffer of pH 6, 37° C.", "result": "~2.5", "unit": "h"},
      {"measurement": "degradation of POD (disappearance of the compound spot at Rf~0.4)", "setting": "[1]; buffer pH 4, 37° C.", "result": "completely degraded"},
      {"measurement": "degradation of POD (disappearance of the compound spot at Rf~0.4)", "setting": "[1]; buffer pH 5, 37° C.", "result": "completely degraded"},
      {"measurement": "Critical Micelle Concentration (CMC)", "setting": "[2]", "result": "about 10 μM"}
    ]}
  ]
}
